This note sets out measurements from patent US20120071422A1 (MEDICAL DIAGNOSTIC LABORATORIES, published 2012).

Sequences and labels used below:
B1: recombinant Δ8,9 protein (soluble truncated human IL-23Rα, exon 8 and 9 deletion splice variant), C-terminal Flag tag (receptor)
chain: GITNINCSGHIWVEPATIFKMGMNISIYCQAAIKNCQPRKLHFYKNGIKERFQITRINKTTARLWYKNFLEPHASMYCTAECPKHFQETLICGKDISSGYPPDIPDEVTCVIYEYSGNMTCTWNAGKLTYIDTKYVVHVKSLETEEEQQYLTSSYINISTDSLQGGKKYLVWVQAANALGMEESKQLQIHLDDIVIPSAAVISRAETINATVPKTIIYWDSQTTIEKVSCEMRYKATTNQTWNVKEFDTNFTYVQQSEFYLEPNIKYVFQVRCQETGKRYWQPWSSLFFHKTPETGLKEGSYC
notes: not shown: C-terminal Flag tag
B2: recombinant Δ9 protein (soluble truncated human IL-23Rα, exon 9 deletion splice variant), C-terminal Flag tag (receptor)
chain: GITNINCSGHIWVEPATIFKMGMNISIYCQAAIKNCQPRKLHFYKNGIKERFQITRINKTTARLWYKNFLEPHASMYCTAECPKHFQETLICGKDISSGYPPDIPDEVTCVIYEYSGNMTCTWNAGKLTYIDTKYVVHVKSLETEEEQQYLTSSYINISTDSLQGGKKYLVWVQAANALGMEESKQLQIHLDDIVIPSAAVISRAETINATVPKTIIYWDSQTTIEKVSCEMRYKATTNQTWNVKEFDTNFTYVQQSEFYLEPNIKYVFQVRCQETGKRYWQPWSSLFFHKTPETVPQVTSKAFQHDTWNSGLTVASISTGHLTSGLKEGSYC
modifications: N-glycosylated (sites not given)
notes: Said to be a monomer; also called Δ9 variant; Δ9 IL-23Rα; not shown: C-terminal Flag tag
B3: recombinant human IL-23 cytokine (p19 + p40) (ligand)
chain 1: RAVPGGSSPAWTQCQQLSQKLCTLAWSAHPLVGHMDLREEGDEETTNDVPHIQCGDGCDPQGLRDNSQFCLQRIHQGLIFYEKLLGSDIFTGEPSLLPDSPVGQLHASLLGLSQLLQPEGHHWETQQIPSLSPSQPWQRLLLRFKILRSLQAFVAVAARVFAHGAATLSP
chain 2: IWELKKDVYVVELDWYPDAPGEMVVLTCDTPEEDGITWTLDQSSEVLGSGKTLTIQVKEFGDAGQYTCHKGGEVLSHSLLLLHKKEDGIWSTDILKDQKEPKNKTFLRCEAKNYSGRFTCWWLTTISTDLTFSVKSSRGSSDPQGVTCGAATLSAERVRGDNKEYEYSVECQEDSACPAAEESLPIEVMVDAVHKLKYENYTSSFFIRDIIKPDPPKNLQLKPLKNSRQVEVSWEYPDTWSTPHSYFSLTFCVQVQGKSKREKKDRVFTDKTSATVICRKNASISVRAQDRYYSSSWSEWASVPCS
notes: Disulfide-linked heterodimer

The target in assay [1] is B3. Nature of the assay: immunoprecipitation and competitive ELISA. On the procedure:
We developed a competitive ELISA to further examine the ability of the deletion protein mutants (i.e., Δ9, Δ8,9 and 1-250 mutant) to compete (i.e., interfere) the binding of IL-23 cytokine to the full-length extracellular domain of IL-23Rα (See, “Materials & Methods”). Recombinant IL-23Rα-Fc fusion protein from R&D (2 μg/ml) was coated on the ELISA plate. IL-23 cytokine (50 ng) was added in the absence or presence of the deletion protein mutants as competitors.
Recombinant human IL-23R-Fc (2 μg/ml) (from R&D) was coated onto plates as a capture reagent. Biotinylated anti-p40 antibody (1:250) (which specifically recognizes the p40 subunit of IL-23) was used as a detection antibody. Streptavidin—horseradish peroxidase (HRP) (1:500) was added to detect the biotinlyated anti-p40 antibody. The peroxidase activity (representing the level of IL-23 captured onto plates) was measured by addition of a tetramethylbenzidine (TMB) substrate (100 μl/well). The color intensity was directly proportion to the amount of the bound IL-23 protein. The color was measured at optical density (OD) 450 nm using a microtiter plate reader.
For orientation: ELISA stands for enzyme-linked immunosorbent assay.

Assay [2] addresses B3. Nature of the assay: anti-Flag immunoprecipitation, anti-p40 immunoblot. The procedure: 200 ng of human IL-23 cytokine was added to the immunoprecipitation reaction. The presence of IL-23 in the precipitate was examined by immunoblot using anti-hIL-12/23 p40 antibody.
In addition, we also prepared two (2) more IL-23Rα deletion mutants; namely, 1-250 mutant and 1-200 mutant. These deletion mutants were generated by PCR (See, FIG. 18). Together, all of the four (4) IL-23Rα protein variants (FIG. 18) were tagged with Flag sequence at the C-terminus. […] The culture media were collected 48 hours post-transfection. These four (4) deletion proteins were immunoprecipitated using anti-Flag affinity gel. 200 ng of IL-23 cytokine was added to the immunoprecipitation assay. […] We speculate that the 1-200 mutant may be improperly folded or missing a critical domain that is essential for binding to IL-23 cytokine. […]
Culture medium from Δ9 transfection experiments was concentrated using Amicon ultra centrifugal filter 30K (Millipore), then Δ9 protein was affinity purified using anti-FLAG M2 affinity gel (Sigma). […] The eluted product was analysed by immunoblot using anti-human p40 or anti-human IL-23R to detect the common p40 subunit of IL-12/IL-23 or Δ9, respectively. […] After extensive washing, the eluted product was analysed using anti-HIS (Invitrogen, Carlsbad Calif.), anti-human p40 or anti-human IL-23R(R&D Systems) to detect soluble IL-12Rβ1, the p40 subunit of IL-23 or Δ9, respectively.

The target in assay [3] is T1, recombinant IL-12 (p35 + p40) (UniProt P29459 23-219; P29460 23-328).
T1 sequence (looked up) 1: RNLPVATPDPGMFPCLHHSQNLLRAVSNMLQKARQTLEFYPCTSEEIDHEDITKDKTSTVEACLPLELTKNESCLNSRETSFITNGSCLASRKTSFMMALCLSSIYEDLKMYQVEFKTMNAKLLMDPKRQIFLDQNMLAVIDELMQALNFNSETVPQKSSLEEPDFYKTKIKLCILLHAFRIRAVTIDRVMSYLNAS
T1 sequence (looked up) 2: B3 chain 2
Nature of the assay: anti-Flag immunoprecipitation, anti-hIL-12/23 p40 immunoblot. The procedure: FIG. 17 depicts the binding specificity of the recombinant Δ9 protein. Immunoprecipitation experiments were performed using anti-Flag M2 affinity gel. Immunoblot experiment was performed to detect IL-12 and IL-23 in the precipitates using the anti-hIL-12/23 p40 (i.e., anti-human IL-12/23 p40). The recombinant Δ9 protein in the precipitates was detected by anti-human IL-23R. Only IL-23 but not IL-12 was detected in the reaction containing the recombinant Δ9 protein.
Culture medium from Δ9 transfection experiments was concentrated using Amicon ultra centrifugal filter 30K (Millipore), then Δ9 protein was affinity purified using anti-FLAG M2 affinity gel (Sigma). The immuno-complex was precipitated, washed and resuspended in PBS. 200 ng of either IL-12 or IL-23 was added to the suspension and incubated at 4° C. for 2 hours. […] The eluted product was analysed by immunoblot using anti-human p40 or anti-human IL-23R to detect the common p40 subunit of IL-12/IL-23 or Δ9, respectively. […] After extensive washing, the eluted product was analysed using anti-HIS (Invitrogen, Carlsbad Calif.), anti-human p40 or anti-human IL-23R(R&D Systems) to detect soluble IL-12Rβ1, the p40 subunit of IL-23 or Δ9, respectively. […] Immuno-precipitation was performed and analysed by immunoblot, probing with anti-hIL-12/23p40.
Background: A western blot detects proteins with antibodies after separation by electrophoresis.

The target of assay [4] is T2, recombinant human His-tagged soluble IL-12Rβ1 (human, UniProt P42701 24-545, limits assumed).
T2 construct: Bought (R&D Systems); also called sIL-12Rβ1; shIL-12Rβ1; not shown: His tag
Nature of the assay: anti-Flag immunoprecipitation without IL-23, anti-His immunoblot. From the text: On the cell surface, human IL-23Rα combines with human IL-12Rβ1 to form the heterodimeric IL-23 receptor. Human IL12Rβ1 also partners with human IL12Rβ2 to form the cell-surface IL-12 receptor. We wanted to know whether Δ9 could link to human IL-12Rβ1 via IL-23, or indeed bind it directly.
Culture medium from Δ9 transfection experiments was concentrated using Amicon ultra centrifugal filter 30K (Millipore), then Δ9 protein was affinity purified using anti-FLAG M2 affinity gel (Sigma). The immuno-complex was precipitated, washed and resuspended in PBS. 200 ng of either IL-12 or IL-23 was added to the suspension and incubated at 4° C. for 2 hours. Reprecipitated FLAG-tagged Δ9 immuno-complex was again precipitated and eluted with excess FLAG peptide. The eluted product was analysed by immunoblot using anti-human p40 or anti-human IL-23R to detect the common p40 subunit of IL-12/IL-23 or Δ9, respectively. […] After extensive washing, the eluted product was analysed using anti-HIS (Invitrogen, Carlsbad Calif.), anti-human p40 or anti-human IL-23R(R&D Systems) to detect soluble IL-12Rβ1, the p40 subunit of IL-23 or Δ9, respectively. […] Immuno-precipitation was performed and analysed by immunoblot, probing with anti-hIL-12/23p40.

In assay [5] the target is T2, recombinant human His-tagged soluble …. Put plainly: anti-Flag immunoprecipitation of Δ9 with IL-23 (200 ng) and sIL-12Rβ1 (1 µg); IL-23 bound to Δ9. On the procedure:
Human IL12Rβ1 also partners with human IL12Rβ2 to form the cell-surface IL-12 receptor. We wanted to know whether Δ9 could link to human IL-12Rβ1 via IL-23, or indeed bind it directly.
Culture medium from Δ9 transfection experiments was concentrated using Amicon ultra centrifugal filter 30K (Millipore), then Δ9 protein was affinity purified using anti-FLAG M2 affinity gel (Sigma). The immuno-complex was precipitated, washed and resuspended in PBS. 200 ng of either IL-12 or IL-23 was added to the suspension and incubated at 4° C. for 2 hours. Reprecipitated FLAG-tagged Δ9 immuno-complex was again precipitated and eluted with excess FLAG peptide. The eluted product was analysed by immunoblot using anti-human p40 or anti-human IL-23R to detect the common p40 subunit of IL-12/IL-23 or Δ9, respectively. […] After extensive washing, the eluted product was analysed using anti-HIS (Invitrogen, Carlsbad Calif.), anti-human p40 or anti-human IL-23R(R&D Systems) to detect soluble IL-12Rβ1, the p40 subunit of IL-23 or Δ9, respectively. To examine the N-glycosylation modification on soluble human IL-23Rα, purified Δ9 was treated with N-Glycosidase F (PNGase F) at 37° C. for 1 hour followed by immunoblotting using anti-human IL-23R. […] Immuno-precipitation was performed and analysed by immunoblot, probing with anti-hIL-12/23p40.

In the case of B1, the binding result in assay [1] is on record as “binds”.
B2: the binding result is recorded as “binds” in assay [2], “no binding (tested: 200 ng)” in assay [3] and “no binding (tested: 1 µg)” in assay [4].
Consider B3, for which the binding result in assay [5] is “binds”.
